Tests used:
PD1 (human) [1] = molecular target: PD1 (human) (UniProt Q15116); experiment: flow cytometry on 293T-PD1 cells, antibody 10 ng/ml; average ± deviation
PD1 (human) [2] = molecular target: PD1 (human) (UniProt Q15116); experiment: flow cytometry on 293T-PD1 cells, antibody 10 ng/ml, second anti-human Fc antibody; the filing calls this staining non-specific

PD1 (human), sequence (Q15116 25-288): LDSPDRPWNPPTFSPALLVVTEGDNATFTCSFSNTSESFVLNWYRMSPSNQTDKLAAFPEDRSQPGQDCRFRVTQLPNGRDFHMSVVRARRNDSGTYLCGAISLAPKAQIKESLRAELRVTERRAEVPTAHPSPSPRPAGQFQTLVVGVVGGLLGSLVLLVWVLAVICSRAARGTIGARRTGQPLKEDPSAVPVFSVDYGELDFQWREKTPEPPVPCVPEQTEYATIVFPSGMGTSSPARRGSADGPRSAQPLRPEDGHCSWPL

Binder	293T-PD1 (%) (PD1 (human) [1])	293T-PD1 (%) (PD1 (human) [2])
murine CH101 (antibody, V domains shown) VH: EVQLEESGPDLVKPSQSLSLTCTVTGYSITSGFAWHWLRQFPGNRLEWMGYIHYSGSTNYNPSLKSRISITRDTSKNQFFLQLNSVTTEDTATFYCARSDFWGQGTFVTVSS VL: DVVMTQTPLNLSVTFGQPVSISCTSSQSLLDRDGETFMNWLFQRPGQSPKRLIYLVSKLDFGVPDRFTGSGSGTDFTLKISRVEAEDLGIYYCWQGTHFPLTFGGGTKLEIK	3.15	
CH101-huIgG1(L/S) (antibody, not shown: a dimerising Fc or GST) heavy: EVQLEESGPDLVKPSQSLSLTCTVTGYSITSGFAWHWLRQFPGNRLEWMGYIHYSGSTNYNPSLKSRISITRDTSKNQFFLQLNSVTTEDTATFYCARSDFWGQGTFVTVSS light: DVVMTQTPLNLSVTFGQPVSISCTSSQSLLDRDGETFMNWLFQRPGQSPKRLIYLVSKLDFGVPDRFTGSGSGTDFTLKISRVEAEDLGIYYCWQGTHFPLTFGGGTKLEIKRTVAAPSVFIFPPSDEQLKSGTASVVCLLNNFYPREAKVQWKVDNALQSGNSQESVTEQDSKDSTYSLSSTLTLSKADYEKHKVYACEVTHQGLSSPVTKSFNRGEC		38.5

Reference: patent US20250002581A1
